# Laboratory results as given in US11142752B2, “Pullulanase mutant” (Jiangnan University, priority 2018, dated 2021).
# Positions count from the first letter of the chain named. In names and notes the source's numbering stands. Several values for one entry are separate records, joined by “and”; a condition that tells them apart may be missing. Identical values can stand only once.
# B1: [Brevibacterium] halotolerans Wild enzyme: wild pullulanase of [Brevibacterium] halotolerans (OEC77647.1, SEQ ID NO: 23) (protein)
# chain: MVSIQRSFEAYADEMNIITVLIPADQKDTFTPPFQLETDTAEIPLTVSQEWQIEGKCKYVCVAEQPVTFGKTHHVKASGGGKTDLQIGAVVRTDAFDAAFYYDGELGAVYTSDYTEFKVWAPAATSAAVKLSHPEKSGHTLQMTRMENGVYAVTVAGDLHGYEYVYRICNNLEWTETVDPYAKAVTVNGEKGVVLRPDQANSAPSLAPFSDPVDAIIYEMHIRDFSIHENSGMKNKGKYSALAETDTKTKNGSSTGLSYLKELGVTHIELLPLNDYAGVDEENPLAAYNWGYNPLHFFAPEGSYASNPHDPQTRNTEVKQMIHTLQQHGLRVILDVVYNHVYQREHSPFEKTVPGYFFRHDQFGMPSNGTGVGNDIASERRMARKFITDCVMYWLKEYDVDGFRFDLLGILDIETVLHMKEKASEVKPGILLFGEGWDLATPLPPEQKATLANASKMPGVGFFNDSFRDAVKGNTFHIAAAGFALGNGEQTETVMRGIAGSSGWKETAPLVSAPSQSINYVESHDNHTFWDKMSLALPQESESRKRSRQKLASAIILLAQGVPFIHSGQEFFRTKQGVENSYQSSDSINQLDWSRRETFKQDVDYVRRLISLRKAHPAFRLTSSADIQRCLECLALKEHLIVYRLFNLGAIDEWEEIIVIHHASPDSVTWQLPKDKAYRLLCDTDGFRADPGEIKKAVAVNGIGTVILF
# modifications: bacterial
# B2: Mutant F476G: Bacillus subtilis str. 168 pullulanase with phenylalanine at position 476 mutated into glycine (protein, UniProt C0SPA0 1-718, looked up, variant F476G)
# Pullulanase: MVSIRRSFEAYVDDMNIITVLIPAEQKEIMTPPFRLETEITDFPLAVREEYSLEAKYKYVCVSDHPVTFGKIHCVRASSGHKTDLQIGAVIRTAAFDDEFYYDGELGAVYTADHTVFKVWAPAATSAAVKLSHPNKSGRTFQMTRLEKGVYAVTVTGDLHGYEYLFCICNNSEWMETVDQYAKAVTVNGEKGVVLRPDQMKWTAPLKPFSHPVDAVIYETHLRDFSIHENSGMINKGKYLALTETDTQTANGSSSGLAYVKELGVTHVELLPVNDFAGVDEEKPLDAYNWGYNPLHFFAPEGSYASNPHDPQTRKTELKQMINTLHQHGLRVILDVVFNHVYKRENSPFEKTVPGYFFRHDECGMPSNGTGVGNDIASERRMARKFIADCVVYWLEEYNVDGFRFDLLGILDIDTVLYMKEKATKAKPGILLFGEGWDLATPLPHEQKAALANAPRMPGIGFFNDMFRDAVKGNTGHLKATGFALGNGESAQAVMHGIAGSSGWKALAPIVPEPSQSINYVESHDNHTFWDKMSFALPQENDSRKRSRQRLAAAIILLAQGVPFIHSGQEFFRTKQGVENSYQSSDSINQLDWDRRETFKEDVHYIRRLISLRKAHPAFRLRSAADIQRHLECLTLKEHLIAYRLYDLDEVDEWKDIIVIHHASPDSVEWRLPNDIPYRLLCDPSGFQEDPTEIKKTVAVNGIGTVILYLASDLKSFA
# B3: Mutant F476I: Bacillus subtilis str. 168 pullulanase mutated at position 476 (F to I) (protein, UniProt C0SPA0 1-718, looked up, variant F476I)
# Pullulanase: B2 Pullulanase with G476I
# B4: Wild enzyme: wild type pullulanase derived from Bacillus subtilis str. 168 (PDB:2E8Z, NCBI CAB14971.2, SEQ ID NO:2) (protein, listed as Bacillus subtilis)
# chain: B2 Pullulanase with G476F
# B5: Mutant F476C: Bacillus subtilis str. 168 pullulanase mutated at position 476 (F to C) (protein, UniProt C0SPA0 1-718, looked up, variant F476C)
# Pullulanase: B2 Pullulanase with G476C
# B6: Mutant F476V: Bacillus subtilis str. 168 pullulanase mutated at position 476 (F to V) (protein, UniProt C0SPA0 1-718, looked up, variant F476V)
# Pullulanase: B2 Pullulanase with G476V
# B7: Mutant F476D: Bacillus subtilis str. 168 pullulanase with phenylalanine at position 476 mutated into aspartic acid (protein, UniProt C0SPA0 1-718, looked up, variant F476D)
# Pullulanase: B2 Pullulanase with G476D
# B8: Mutant F476A: Bacillus subtilis str. 168 pullulanase mutated at position 476 (F to A) (protein, UniProt C0SPA0 1-718, looked up, variant F476A)
# Pullulanase: B2 Pullulanase with G476A
# B9: Mutant F476M: Bacillus subtilis str. 168 pullulanase mutated at position 476 (F to M) (protein, UniProt C0SPA0 1-718, looked up, variant F476M)
# Pullulanase: B2 Pullulanase with G476M
# Tested on: pullulanase of [Brevibacterium] halotolerans
# Test: Inhibitory effect of cyclodextrin on pullulanase enzyme activity (DNS method, pullulan substrate)
# Format: biochemical
# Details: inhibitor α-CD
# Text: (§1) 2. Measurement of Enzyme Activity of the Pullulanase:
# (§2) A 3,5-dinitrosalicylic acid (DNS) method is adopted. The pullulanase catalyzes the hydrolysis of pullulan to produce reducing sugar under certain conditions, 3,5-dinitrosalicylic acid and the reducing sugar are reduced under thermal conditions to produce a brown-red amino complex, the color depth is directly proportional to the amount of the reducing sugar within a certain range, and the measurement can be performed at the wavelength of 540 nm so as to calculate the enzyme activity. Enzyme activity unit definition: the amount of the enzyme that catalyzes the production of the reducing sugar equivalent to 1 μmol of glucose reducing power per minute is defined as one activity unit.
# (§3) 3. Measurement of the Enzyme Activity Comprises the Following Steps:
# (§4) A. preheating: putting 1 mL of a 1% pullulan solution of which the pH value is 6.0 and 0.1 mL of a buffer solution of which the pH value is 6.0 in a centrifuge tube, and performing thermal insulation for 10 min on a water bath of 40° C.;
# (§5) B. reaction: adding 0.1 mL (10 U) of an enzyme solution, performing shaking and mixing uniformly, performing accurate timing for 30 min, adding 1.5 mL of DNS for stopping reaction, performing treatment in a boiling water bath for 10 min, and performing instant cooling; and
# (§6) C. measurement: measuring the light absorption value under the condition of 540 nm, and calculating the activity.
# (§7) Reduction of the Inhibitory Effect of Enzyme Activity Characterization:
# (§8) A. preheating: putting 1 mL of the 1% pullulan solution of which the pH value is 6.0 and 0.1 mL of 10 mM cyclodextrin in the centrifuge tube, and performing thermal insulation for 10 min on the water bath of 40° C.;
# B. reaction: adding 0.1 mL (10 U) of the enzyme solution, performing shaking and mixing uniformly, performing accurate timing for 30 min, adding 1.5 mL of DNS for stopping reaction, performing treatment in the boiling water bath for 10 min, and performing instant cooling; and
# On the basis, the phenylalanine at the position 481 of the Geobacillus stearothermophilus, the phenylalanine at the position 478 of the [Brevibacterium] halotolerans and the phenylalanine at the position 476 of the […] are mutated, obtained mutants and the mutation effects are shown in the table below. The key amino acid site is applicable to the pullulanase from different sources.
row,Molecule,Reduction rate of specific enzyme activity in existence of α-CD [%]
1,B1,15.3

# Same assay, conditions: inhibitor β-CD
row,Molecule,Reduction rate of specific enzyme activity in existence of β-CD [%]
1,B1,47.2

# Same assay, conditions: inhibitor γ-CD
row,Molecule,Reduction rate of specific enzyme activity in existence of γ-CD [%]
1,B1,6.1

# Tested on: pullulanase derived from Bacillus subtilis str. 168
# Test: as above
# Format: biochemical
# Details: Bacillus subtilis str. 168 pullulanase; inhibitor α-CD (0.1 mL of 10 mM cyclodextrin); 1% pullulan pH 6.0, 40° C., 30 min
# Text: as §1, §2, §3, §4, §5, §6, §7, §8
# B. reaction: adding 0.1 mL (10 U) of the enzyme solution, performing shaking and mixing uniformly, performing accurate timing for 30 min, adding 1.5 mL of DNS for stopping reaction, performing treatment in the boiling water bath for 10 min, and performing instant cooling; and […]
row,Molecule,Reduction rate of specific enzyme activity in existence of α-CD [%]
1,B2,10.6
2,B3,8.2
3,B4,14.3
4,B5,4.3
5,B6,7.2
6,B7,5.6
7,B8,3.5
8,B9,6.5

# Same assay, conditions: Bacillus subtilis str. 168 pullulanase; inhibitor α-CD (0.1 mL of 10 mM cyclodextrin); 1% pullulan pH 6.0, 40° C., 30 min; listed as wild type pure enzyme
row,Molecule,Reduction rate of specific enzyme activity in existence of α-CD [%]
1,B4,14.3

# Same assay, conditions: Bacillus subtilis str. 168 pullulanase; inhibitor β-CD (0.1 mL of 10 mM cyclodextrin); 1% pullulan pH 6.0, 40° C., 30 min
row,Molecule,Reduction rate of specific enzyme activity in existence of β-CD [%]
1,B2,17.1
2,B3,21.7
3,B4,42.8
4,B5,17.2
5,B6,16.7
6,B7,11.1
7,B8,5.6
8,B9,20.6

# Same assay, conditions: Bacillus subtilis str. 168 pullulanase; inhibitor β-CD (0.1 mL of 10 mM cyclodextrin); 1% pullulan pH 6.0, 40° C., 30 min; listed as wild type pure enzyme
row,Molecule,Reduction rate of specific enzyme activity in existence of β-CD [%]
1,B4,42.8

# Same assay, conditions: Bacillus subtilis str. 168 pullulanase; inhibitor γ-CD (0.1 mL of 10 mM cyclodextrin); 1% pullulan pH 6.0, 40° C., 30 min
row,Molecule,Reduction rate of specific enzyme activity in existence of γ-CD [%]
1,B2,17.6
2,B3,15.2
3,B4,17.1
4,B5,5.6
5,B6,12.3
6,B7,11.0
7,B8,5.8
8,B9,16.1

# Same assay, conditions: Bacillus subtilis str. 168 pullulanase; inhibitor γ-CD (0.1 mL of 10 mM cyclodextrin); 1% pullulan pH 6.0, 40° C., 30 min; listed as wild type pure enzyme
row,Molecule,Reduction rate of specific enzyme activity in existence of γ-CD
1,B4,7.1% and 17.1%

# Same assay, conditions: α-CD, β-CD and γ-CD; comparison of mutant with wild type pure enzyme
row,Molecule,Inhibitory effects of three cyclodextrins on the pullulanase mutant compared with the wild type pullulanase
1,B2,significantly lower than that of the wild type pullulanase
2,B7,significantly lower than that of the wild type pullulanase
